According to patent US20220112295A1 (Novo Nordisk, published 2022):
Substitutions are numbered along the chain they refer to.

T1: native human CD30L expressed on Ramos cells (human, UniProt P32971 1-234)
T1 construct: It is used here for the native protein on human B cell lines; also called huCD30L; Native huCD30L
T1 sequence: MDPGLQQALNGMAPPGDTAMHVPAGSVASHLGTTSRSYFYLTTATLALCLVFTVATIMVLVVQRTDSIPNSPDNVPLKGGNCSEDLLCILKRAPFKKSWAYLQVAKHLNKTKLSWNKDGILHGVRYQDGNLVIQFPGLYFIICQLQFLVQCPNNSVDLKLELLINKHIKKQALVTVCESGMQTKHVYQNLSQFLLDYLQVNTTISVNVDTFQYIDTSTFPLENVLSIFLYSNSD

T2: recombinant human CD30L isoleucine zipper (huCD30L LZ) (human, UniProt P32971 63-234)
T2 construct: also called huCD38L LZ; CD30L LZ Hu; not shown: N-terminal isoleucine zipper motif (leucine zipper with leucines replaced by isoleucines)
T2 sequence: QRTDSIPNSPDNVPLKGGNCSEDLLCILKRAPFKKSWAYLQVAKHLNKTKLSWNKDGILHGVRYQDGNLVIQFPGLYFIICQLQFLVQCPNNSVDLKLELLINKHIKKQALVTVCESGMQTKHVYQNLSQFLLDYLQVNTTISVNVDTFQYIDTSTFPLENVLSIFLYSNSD

T3: FLAG-hCD30L-EC (N153Q) treated with PNGaseF (human)
T3 construct: also called FLAG-hCD30L-EC + PNGaseF
T3 chain: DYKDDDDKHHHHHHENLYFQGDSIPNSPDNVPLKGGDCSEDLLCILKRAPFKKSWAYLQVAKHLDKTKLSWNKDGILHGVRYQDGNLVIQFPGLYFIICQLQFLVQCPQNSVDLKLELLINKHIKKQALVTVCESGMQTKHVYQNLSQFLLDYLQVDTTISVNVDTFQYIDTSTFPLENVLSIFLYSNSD

B1: Antibody A (antibody, V domains shown)
VH: QVQLQESGPGLVKPSETLSLTCTVSGGSISSYIWSWIRQPAGKGLEWIGRIYASGNTNYNPSLKSRVTMSVDTSKNQFSLKLSSMTAADTAVYYCARDYRVAGTYYYYYGLDVWGQGTTVTVSS
VL: QSALTQPASVSGSPGQSITISCTGTSSDVGVYDYVSWYQQHPGKAPKLMIYEVSNRPSGVSNRFSGSKSGNTASLTISGLQTEDEADYYCSSYTSRSTWVFGGGTKLTVL
notes: Human antibody (XenoMouse); also called mAb A; anti-hCD30L A
B2: Antibody D (antibody, V domains shown)
VH: QVQLQESGPGLVKPSETLSLTCTVSGGSISSYSWSWIRQPAGKGLEWIGRTSTSGRNNYNPSLKSRVTMSVDTSKNQFSLKLNSVTAADTAVYYCARDFTIAARRYYYYGMDVWGQGTTVTVSS
VL: B1 VL with V29I, V31L, D33N, M49I, S54I, K68E, T82A, D87N, R96S
notes: also called mAb D
B3: Antibody B (antibody, V domains shown)
VH: QVQLQESGPGLVKPSETLSLTCTVSGGSISSYYWTWIRQPAGKGLEWIGRIYTSGITNYNPSLKSRVTMSVDTSKNQFSLKLSSVTAADTAVYYCARERVVGASRYYYYGVDVWGQGTTVTVSS
VL: B1 VL with V31L, D33N, G43D, Y51F, S54N, K68N, T82A, R96S
notes: also called mAb B
B4: Antibody F (antibody, V domains shown)
VH: QVQLQESGPGLVKPSETLSLTCTVSGGSISSYYWSWIRQPAGKGLEWIGRIFASGSTNYNPSLRSRVTMSRDTSKNQFSLKLSSVTAADTAVYYCAKERVGVQDYYHYSGMDVWGQGTTVTVSS
VL: B1 VL with V31L, D33N, H41Q, N55K, K68T, T82A, E83D, Y89S, R96S
notes: also called mAb F
B5: Antibody C (antibody, V domains shown)
VH: B3 VH
VL: QSALTQPASVSGSPGQSITISCTGTSSDIGLYDYVSWYQQHPDRAPKLIIFEVNNRPSGVSYRFSGSNSGNTASLTISGLQAEDEADYYCSSYTSSSTWVFGGGTKLTVL
notes: also called mAb C
B6: Antibody E (antibody, V domains shown)
VH: QVQLQESGPRLVKPSETLSLTCTVSGGSITNNYWSWIRQPAGKGLEWIGRVYSSGLTNYKPSLKSRVTMSVDTSKNQFSLRLNSVTAADTAVYYCARERATVTTRYHYDGMDVWGQGTSVTVSS
VL: QSALTQPASVSGSPGQSITISCTGSSSDIGTYNYVSWYQQYPGKAPELMIYEVNNRPSGVSDRFSGSTSGNTASLTISGLQANDEADYYCSSYSSSSTWVFGGGTKLTVL
notes: also called mAb E

What was measured:
[1] = biological target: T1, native human CD30L expressed on Ramos …; test: FACS, native human CD30L on Ramos cells
Procedure: The supernatants were purified and recombinant antibodies were expressed as IgG1 and IgG2 constructs. The antibodies were rescreened for binding to native human and cynomologous monkey CD30L. Briefly, human Burkitt's lymphoma Ramos cells (3×10⁵/well) were incubated in round-bottomed 96-well microtiter plates (Costar® 96 well plate (Corning; Acton, Mass.) with a titration (10 μg/mL to 3.2 ng/mL final concentration) of anti-CD30L IgG antibodies in blocking buffer (PBS containing 0.02% sodium azide, 2% normal goat serum and 1% normal rabbit serum). Human […] fusion protein was included as a positive control for binding. Cells were incubated for 30 minutes at 4° C. then washed ×2 with PBS and incubated for a further 30 minutes at 4° C. with 30 μL/well of anti-hu IgG-biotin (1:50 in blocking buffer; Jackson Immunoresearch, West Grove, Pa.). After washing ×2 with PBS, cells were incubated for 30 minutes at 4° C. with 30 μL/well (1:50 dilution in PBS) of Streptavidin-Phycoerythrin (PE; Molecular Probes, Eugene, Oreg.). Cells were washed 2× with PBS and prepared for FACs analysis.

[2] = biological target: T1, native human CD30L expressed on Ramos …; test: FACS, antibody at 50 ug/mL, inhibition of huCD30.Fc-His binding to Ramos cells
Procedure: The antibodies were also screened for ability to block binding of human CD30L to a soluble human CD30. c molecule. Briefly, human Ramos cells or activated cynomolgus monkey T cells were incubated with anti-CD30L IgGs at 50 μg/mL in blocking buffer for 30 minutes at 4° C. Soluble huCD30. Fc-His was then added at a final concentration of 2.5 ug/mL (30 μL/well) and incubated for 30 minutes at 4° C. Cells were washed ×2 with PBS and incubated with 5 μg/mL of a mouse anti-His monoclonal antibody (30μL/well in blocking buffer) and incubated for 30 minutes at 4° C. After washing ×2 with PBS, cells were incubated with anti-mouse IgG-PE (1:50 in PBS; BD Pharmingen, San Diego, Calif.) for a further 30 minutes at […]. Cells were then washed ×2 with PBS and prepared for FACs analysis.

[3] = biological target: T2, recombinant human CD30L isoleucine …; test: blocking of human CD30L LZ binding to K299 cells (CD30)
[4] = biological target: T1, native human CD30L expressed on Ramos …; test: FACS Kd method on Ramos cells, equilibrium, KinExA n-curve analysis
Procedure: Binding affinity of CD30L antibodies to CD30L expressed on Ramos cells were determined by FACS Kd method. The Ramos cells were cultured in RMPI1640 media+10% FBS+L-glut+0.05% azide. Two equilibrium reactions were set up where the antibodies were titrated 1:3 from 60 nM to […] using cell culture media and incubated with two different constant cell concentrations (25000 and 250000 cells). The plates were sealed with parafilm and incubated at 37° C., 20 h, shaking. The equilibrium plates were centrifuged and cell pellets were washed twice with ice cold FACS buffer (1× D-PBS+2% FBS). The cells were then incubated with a secondary antibody goat anti-human Fe Cy5 (Jackson Immuno Research, West Grove, Pa.) and with 7AAD (BD-Biosciences, Rockville, Md.) for 1 h on ice in the dark. Following the incubation, the cells were washed twice with ice-cold FACS buffer before flow cytometry analysis. The GeoMean values of FL4 shift gated on live cell population measure the bound [Ab]. The inverse of the GeoMean values that reflects theoretical free [Ag] in the equilibrium solution was then calculated. The inverse values of the GeoMean read were used in KinExA software for analysis and Kd calculation for each antibody. The free [Ag] measure was plotted against the starting concentration of titrating component and from these plots at two different cell concentrations the Kd was obtained from curve fitting using n-curve analysis in KinExA™ Pro software. The 95% confidence interval is given as Kd low and Kd high.

[5] = biological target: T3, FLAG-hCD30L-EC (N153Q) treated with …; test: HX-MS, 6 uM hCD30L with 6.6 uM mAb

| Binder | EC50 [1] [nM] | % inhibition [2] [%] | IC50 [3] [nM] | Kd [4] [nM] | binding result [5] |
| --- | --- | --- | --- | --- | --- |
| B1 | 1.7 | 68 | 1.5 | 0.0255 |  |
| B2 | 3.3 | 55 |  | 0.0119 | binds |
| B3 | 3.1 | 70 | 2.5 | 0.00743 |  |
| B4 | 2.3 |  | 2 | 0.0357 | binds |
| B5 | 1.7 | 88 | 1.9 | 0.044 |  |
| B6 | 3.3 | 80 | 2.1 | 0.0521 | binds |
